Source: article PMC10955725

Target: His6-Mb(S2)-Avi, recombinant monobody
Test: BLI

Kd: 7 µM
Substance: wild-type (WT) SOD1, non-tagged recombinant (from UniProt P00441 2-154) (natural protein)
